# Laboratory results: patent US9885050B2, “Molecular affinity clamp technology and uses thereof” (The University of Chicago, priority 2007, dated 2018)
# Read-outs that look alike come from different tables or passages of the source.
# T1: ARVCF (Homo sapiens, UniProt O00192)
# T1 construct: host or cells: mammalian cell lysate
# T1 sequence (O00192 1-962): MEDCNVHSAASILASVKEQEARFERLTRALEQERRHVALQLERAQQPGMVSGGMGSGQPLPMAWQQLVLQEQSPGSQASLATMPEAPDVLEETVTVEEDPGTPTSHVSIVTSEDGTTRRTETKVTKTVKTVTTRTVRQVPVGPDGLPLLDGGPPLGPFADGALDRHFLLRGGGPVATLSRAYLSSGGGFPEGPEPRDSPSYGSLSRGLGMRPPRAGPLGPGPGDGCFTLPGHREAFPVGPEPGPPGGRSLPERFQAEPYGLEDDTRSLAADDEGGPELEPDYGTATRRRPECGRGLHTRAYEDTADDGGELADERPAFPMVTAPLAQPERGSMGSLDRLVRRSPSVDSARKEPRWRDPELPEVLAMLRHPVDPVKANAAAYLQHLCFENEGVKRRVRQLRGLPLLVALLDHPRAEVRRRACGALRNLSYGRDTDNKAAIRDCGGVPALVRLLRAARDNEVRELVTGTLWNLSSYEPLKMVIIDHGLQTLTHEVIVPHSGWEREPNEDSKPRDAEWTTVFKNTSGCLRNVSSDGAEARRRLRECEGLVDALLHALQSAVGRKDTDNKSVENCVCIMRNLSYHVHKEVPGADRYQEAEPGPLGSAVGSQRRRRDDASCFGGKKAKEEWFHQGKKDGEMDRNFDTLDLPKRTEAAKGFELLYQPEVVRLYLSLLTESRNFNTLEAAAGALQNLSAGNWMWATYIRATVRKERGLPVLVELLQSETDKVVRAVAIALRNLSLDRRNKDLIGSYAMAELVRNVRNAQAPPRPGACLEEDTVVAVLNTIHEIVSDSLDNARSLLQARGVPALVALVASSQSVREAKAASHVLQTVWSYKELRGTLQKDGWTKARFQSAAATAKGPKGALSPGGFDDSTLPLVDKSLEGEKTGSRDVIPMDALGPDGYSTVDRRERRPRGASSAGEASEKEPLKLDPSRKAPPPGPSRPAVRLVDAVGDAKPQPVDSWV
# B1: ePDZ-a: affinity clamp: circularly permutated erbin PDZ fused to engineered FN3, SEQ ID NO: 149, selected for ARVCF peptide (protein)
# chain: MKHHHHHHHHHHSSDYKDDDDKGENLYFQGSPELGFSISGGVGGRGNPFRPDDDGIFVTRVQPEGPASKLLQPGDKIIQANGYSFINIEHGQAVSLLKTFQNTVELIIVREVGNGAKQEIRVRVEKDGGSGGVSSVPTNLEVVAATPTSLLISWDASYYGVSYYRITYGETGGNSPVQEFTVPYSSSTATISGLKPGVDYTITVYAYSDYYGSHHYSPISINYRT
# B2: circularly permutated PDZ domain: erbin PDZ with original termini joined by Asn-Gly linker, new termini between residues 20 and 21 (protein)
# chain: PELGFSISGGVGGRGNPFRPDDDGIFVTRVQPEGPASKLLQPGDKIIQANGYSFINIEHGQAVSLLKTFQNTVELIIVREVGNGAKQEIRVRVEKD
# B3: ePDZ-b: affinity clamp: circularly permutated erbin PDZ fused to engineered FN3, SEQ ID NO: 150, selected for ARVCF peptide (protein)
# chain: MKHHHHHHHHHHSSDYKDDDDKGENLYFQGSPELGFSISGGVGGRGNPFRPDDDGIFVTRVQPEGPASKLLQPGDKIIQANGYSFINIEHGQAVSLLKTFQNTVELIIVREVGNGAKQEIRVRVEKDGGSGGVSSVPTNLEVVAATPTSLLISWDAYYDSHVSYYRITYGETGGNSPVQEFTVPGSKSTATISGLKPGVDYTITVYAHYNYHYYSSPISINYRT
# Key:
# Pin1 WW domain = Pin1 WW domain (Homo sapiens, UniProt Q13526); details: For eWW (Pin1 WW); read-out: Affinity if known; cited from earlier work
# [1] = biological target: T2, ARVCF peptide (PQPVDSWV-COOH) (Homo sapiens, UniProt O00192); assay: Surface plasmon resonance (SPR, BIAcore) analysis of motif binding, ARVCF peptide; details: for koff / kon: for the ARVCF peptide; for Affinity Enhancement: ratio of Kd of parent protein (cpPDZFN) for ARVCF to that of the affinity clamp
# T2 construct: made in house; host or cells: E. coli
# From the text: (§1) Using semi-automated methods, the phage display library was sorted using an eight-residue motif (SEQ ID NO: 148) corresponding to the ARVCF C-terminus. […] The maximal motif/affinity concentrations are indicated. In B, C and F, the on and off rates are also shown on the left and right sides, respectively. […] After four rounds of sorting, two clones with high affinity were identified to the ARVCF peptide motif. ePDZ-a (SEQ ID NO: 149) and ePDZ-b (SEQ ID NO: 150) are thus (referred to as “enhanced PDZ-a” and “enhanced PDZ-b” or simply “ePDZ-a” and “ePDZ-b” respectively) potential affinity clamp candidates.
# These two clones were characterized as soluble proteins.
# One method to improve affinity of the affinity clamp is to improve the interaction interface of the enhancer domain (e.g. the FN3 domain). […] The two second-generation variants, ePDZ-b1 (SEQ ID NO: 151) and ePDZ-b2 (SEQ ID NO: 143), were prepared as protein samples and their binding properties were analyzed using SPR. […] The affinity enhancement primarily originated from reduced dissociation rates.
# A disulfide-constrained peptide was used as an enhancer domain. A peptide-PDZ affinity clamp was designed in which the diversified peptide segment was N-terminal connected to the circularly permutated PDZ domain (cpPDZ) described above. (See, FIG. F1 showing an affinity clamp constructed with Cys-constrained peptide as an enhancer domain in which (A) is a schematic drawing of the affinity clamp. Note that the peptide is attached to the N-terminus of the interaction domain. (B, C) are saturation curves of the parent PDZ (B) and peptide-PDZ Affinity Clamp (C) determined using surface plasmon resonance (SPR). SPR experiments were performed in the equilibrium mode, and the SPR response is plotted as a function of the concentration of the target peptide. The target peptide fused to the yeast SUMO protein was used in these measurements. The curves show the best fit of the 1:1 binding model to the data. The Kd values are also shown.)
# [2] = biological target: T3, δ-catenin peptide (PASPDSWV-COOH) (Homo sapiens, UniProt Q9UQB3); assay: Surface plasmon resonance (SPR, BIAcore) analysis of motif binding, δ-catenin peptide; details: for Kd: SPR; for Specificity Index: ratio of Kd for δ-catenin to Kd for ARVCF
# T3 construct: yeast SUMO (N); made in house
# From the text: as §1
# The binding specificity of the ePDZ clones was investigated. In addition to the ARVCF motif, wild-type erbin PDZ also binds to the C-terminus of δ-catenin with a low μM Kd. The two sequences differ only at positions outside the core recognition motif, DSWV (SEQ ID NO: 69) —COOH (Table 2). The affinity enhancement of ePDZ-a was similar for both targets. Remarkably, the ePDZ-b clone had very weak binding to δ-catenin, similar to the wild-type PDZ domain, showing that ePDZ-b discriminates between the two targets by ˜200 fold. Equally importantly, ePDZ-b discriminates amino acids outside the DSWV-COOH motif shared by the two peptides (Table 2), and thus, it expanded the size of the target motif. The improved specificity is consistent with the molecular affinity clamp design where the enhancer domain binds to the motif surface presented on the PDZ domain and thus can “read” the motif sequence (FIG. C2).
# [3] = test system: ARVCF target peptide (SUMO fusion) in E. coli lysate; assay: Pull-down (immunoprecipitation) with biotinylated ePDZ's and streptavidin magnetic beads; format: binding; details: biotinylated clamp, streptavidin magnetic beads, E. coli lysate/cell extracts
# From the text: (§2) The PDZ-FN3 affinity clamps functioned well in Western blotting and in immunoprecipitation (pull down) assays. […] Lane 6 is a negative control for the secondary, anti-FLAG antibody. In FIG. C6B, pull-down (immunoprecipitation), biotinylated ePDZ's and streptavidin (SA)-magnetic beads were used. The input (I), unbound (U), wash (W) and bound (B) fractions were separated with SDS-PAGE and detected with CBB. Note that this is not Western blotting, which would have given higher sensitivity and specificity. […] Note that most of nonspecific binding is due to the SA-magnetic beads (lane 13). […] It is noted that the relatively low recovery of the target in the pull-down assays may be due to the fact that the off-rate was optimized for these clamps (FIG. C3).
# These Kd values and dissociation rates compare favorably to those for monoclonal antibodies. The reduced dissociation rate of an affinity clamp improves its usefulness in immunochemical applications.
# ARVCF = biological target: T1, ARVCF; assay: Western blotting of ARVCF in mammalian cell lysate; format: binding; details: vs commercial monoclonal antibody
# [4] = test system: SUMO-ARVCF fusion protein; assay: Western blotting of SUMO-ARVCF fusion protein in E. coli lysate; format: binding; details: E. coli lysate containing 5 nanograms SUMO-ARVCF
# From the text: as §2
# [5] = biological target: T4, Ala-substituted ARVCF peptide (positions −7 to −4) (Homo sapiens, UniProt O00192, V958A); assay: Alanine-scanning of the ARVCF peptide by SPR; format: binding; details: ARVCF peptide mutant
# T4 construct: The tested positions are −7 to −4 in the ARVCF peptide (PQPVDSWV-COOH; mutated positions are underlined); yeast SUMO (N)
# Experimental: (§3) To complement the library sorting experiments described above, Ala-scanning experiments of the ARVCF peptide were performed. When the goal is to define differences in the ability of ePDZ-a and ePDZ-b1 to recognize the differences between the ARVCF and δ-catenin peptides, only those positions that differ between the two peptides are analyzed.
# (§4) Consistent with the peptide library sorting results, the ePDZ-b family was sensitive to Ala substitution mutations at all positions between −4 and −7. […] The results are shown in terms of changes in free energy change (ΔG=−RT ln(Kd^mutant/Kd^wild type)). […] The tested positions are −7 to −4 in the ARVCF peptide (PQPVDSWV-COOH; mutated positions are underlined). For each mutant, binding affinity was determined using surface plasmon resonance as described previously for the wild-type ARVCF peptide (69).
# Grb2-SH2 domain = biological target: T5, Grb2-SH2 domain (Homo sapiens, UniProt P62993); details: For eSH2 (Grb2); read-out: Affinity if known; cited from earlier work
# T5 construct: The SH2 domain of Grb2 (“Grb2-SH2” hereafter) is ˜98 residue autonomously folded domain
# ARVCF peptide = biological target: T6, ARVCF peptide (Homo sapiens, UniProt O00192); assay: IC50 for the ARVCF peptide (Table 4); format: binding
# T6 construct: made in house; host or cells: E. coli
# [6] = test system: Ala-substituted ARVCF peptide (positions −7 to −4); assay: Alanine-scanning of the ARVCF peptide by SPR; format: binding; details: positions −7 to −4
# Experimental: as §3, §4
# [7] = Table 4, SPR, read-out: Kd [nM] ARVCF
# [8] = Table 4, read-out: Kd [nM] δ-catenin
# [9] = Table 2, SPR, read-out: Kd, ARVCF PQPVDSWV
# [10] = Table 2, read-out: Kd, δ-catenin PASPDSWV
# Pin1 WW domain, sequence (Q13526 5-39 limits assumed): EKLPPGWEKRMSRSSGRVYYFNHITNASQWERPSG
# T5 sequence (P62993 60-152 limits assumed): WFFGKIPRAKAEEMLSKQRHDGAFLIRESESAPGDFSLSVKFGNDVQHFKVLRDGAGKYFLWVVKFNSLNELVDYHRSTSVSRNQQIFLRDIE
molecule,measurement,setting,value
VPRpTPV [Cdc25c-T48],Kd,Pin1 WW domain,8000 nM
"ePDZ-b2: second-generation affinity-matured variant of ePDZ-b, SEQ ID NO: 143 (SYYGVS)",Kd,[1]; [7],4 nM
same,koff,[1]; SPR,<2.9 × 10^−4 S^−1
same,kon,[1]; SPR,7.0 × 10^4 M^−1S^−1
same,Affinity Enhancement,[1],6200
same,Kd,[2]; [8],> 10000 nM
same,Specificity Index,[2],>2500
same,capture of target in pull-down (immunoprecipitation),[3],captured a target peptide from E. coli lysate in a highly specific and quantitative manner
same,performance in Western blotting,ARVCF,superior to that of a commercially available monoclonal antibody
LYRpSPS [Cdc25c-S214],Kd,Pin1 WW domain,72000 nM
wt-PDZ: wild-type PDZ domain of Erbin (SEQ ID NO: 146) (YYDSHVS) [reference compound],dissociation rate (in words),[1]; SPR,too fast to measure
same,Kd,[1]; [9],~10000 nM
same,discrimination between ARVCF peptide and δ-catenin peptide,[2],almost equally
same,detection of target in Western blotting,[4],did not
YSPTpSPS [Polll-CTD-S5],Kd,Pin1 WW domain,34000 nM
STSpTPR [Myt1-T455],Kd,Pin1 WW domain,40000 nM
"ePDZ-b1: second-generation affinity-matured variant of ePDZ-b, SEQ ID NO: 151 (HYNYHYYS)",Kd,[1]; [7],5 nM
same,koff,[1]; SPR,<3.7 × 10^−4 S^−1
same,kon,[1]; SPR,7.3 × 10^4 M^−1S^−1
same,Affinity Enhancement,[1],4960
same,Kd,[2]; [8],> 10000 nM
same,Specificity Index,[2],>2000
same,reduction in affinity on Ala substitution at position −4,[5],over 200 fold
VNATpYVNVKCVA [c-MET pY1356],Kd,Grb2-SH2 domain,200 to 1000 nM
PSpYVNVQN [SHC (control)],Kd,Grb2-SH2 domain,18 nM
PPApTPP [Myt1-T412],Kd,Pin1 WW domain,15000 nM
SPQPEpYVNQPDVR [ErbB2 pY1139],Kd,Grb2-SH2 domain,76 nM
B1,Kd,[1]; [9],56 nM
same,Kd,[1]; [7],56 ± 6 nM
same,koff,[1]; SPR,1.5 × 10^−2 S^−1
same,kon,[1]; SPR,2.9 × 10^5 M^−1S^−1
same,Affinity Enhancement,[1],520
same,Kd,[2]; [10],430 nM
same,Kd,[2]; [8],429 nM
same,Specificity Index,[2],8
same,IC50,ARVCF peptide,40 nM
same,sensitivity to Ala substitutions of the ARVCF peptide,[6],much less sensitive to the Ala substitutions
same,detection of target in Western blotting,[4],detected the target
B2,Kd,"[1]; SPR equilibrium mode, target peptide fused to yeast SUMO, read-out: dissociation constant (Kd), ARVCF peptide",11000 ± 700 nM
B3,Kd,[1]; [9],56 nM
same,Kd,[1]; [7],56 nM
same,koff,[1]; SPR,1.1 × 10^−2 S^−1
same,kon,[1]; SPR,1.9 × 10^5 M^−1S^−1
same,Affinity Enhancement,[1],520
same,discrimination between ARVCF peptide and δ-catenin peptide,[2],~200 fold
same,Kd,[2]; [10],> 10000 nM
same,Kd,[2]; [8],> 10000 nM
same,Specificity Index,[2],>178
same,IC50,ARVCF peptide,59 nM
same,detection of target in Western blotting,[4],detected the target
